# Source: paper PMC10310011, “Accelerated absorption of regular insulin administered via a vascularizing permeable microchamber implanted subcutaneously in diabetic Rattus norvegicus” (PLOS ONE, 2023)
# Settings: rat, in vivo
# From the text: Male athymic nude R. norvegicus between 9–12 weeks of age and weighing 250–350 g were purchased from Envigo (Livermore, CA, USA). Because estrogen interferes with streptozotocin [44] (see next), only male animals were included. Athymic nude rats were chosen to abrogate a possible antibody response against the human insulin to be injected. Animals were housed for a seven-day acclimatization period before initiating any experimental procedures. To avoid endogenous insulin in subject rats from cross-reacting in the human insulin assays, animals were rendered diabetic by a single intraperitoneal injection, 60 mg/kg, of streptozotocin (Sigma-Aldrich, St. Louis, MO, USA). Blood glucose concentrations were monitored daily using a Freestyle Lite Glucose Monitoring System (Abbott Diabetes Care Inc., Alameda, CA, USA). Rats were considered diabetic when blood glucose concentrations greater than 200 mg/dl were recorded on three consecutive days. Rats verified as diabetic were maintained with exogenous long-acting insulin (Lantus, Sanofi-Aventis, Bridgewater, NJ, USA) throughout the study; maintenance insulin treatment also serves to forestall insulin resistance. Maintenance insulin therapy was suspended for 24 hours prior to each insulin kinetics study. Two days after the initial insulin-kinetics assay two empty, 1.5 cm^2 per side, single-chamber (having a nominal internal volume of 22.5 μl), implantable vascularizing microchambers, IVMs (Procyon Technologies LLC, Tucson, AZ, USA) (Fig 1A) were implanted subcutaneously on the dorsal aspect of each rat. The initial insulin kinetics assays were performed 7 days after STZ induction of diabetes. […] Plasma samples collected from each insulin kinetics assay were analyzed for human insulin concentration using a commercial human insulin ELISA kit (Alpco, Salem, NH, USA). […] The measured insulin concentrations were converted from IU/ml to μg/ml according to the manufacturer’s recommended conversion ratios of 1 IU of human insulin = 6nmol = 34.8 μg of insulin. […] The mean and standard deviation (SD) for each category were then calculated. […]
substance,measurement,setting,value
insulin human,"Plasma insulin curves after SC injection, diluted versus stock concentration",,did not vary significantly
same,95% CI of Tmax,sc,13.18 to 32.27 min
same,Tmax (mean peak time of plasma insulin),sc,22.7 min
